Key:
[1] = biological target: HtpG from Synechococcus elongatus PCC 7942 (Synechococcus elongatus PCC 7942); assay: AUC
[2] = biological target: HtpG from Synechococcus elongatus PCC 7942 (Synechococcus elongatus PCC 7942); assay: SEC

Substance: HtpG from Synechococcus elongatus PCC 7942 (natural protein)
- stoichiometry N [1]: 2
- stoichiometry N [2]: 2

— doi:10.1101/2025.04.03.647111
